Laboratory results from the Immune Epitope Database (IEDB).

Target: HLA-A*01:01
Assay: IEDB peptide-MHC binding, purified MHC/competitive/radioactivity; ≥ and ≤ were set here for values at or beyond the usual limits of such assays
Conditions: source organism: unidentified

IC50 [µM]	Sequence
0.032	ADTDSPLRY
10	EKPHSEAGTAF
0.03	ETESQQIRY
0.201	GCLDTAQRNLY
1.71	PHSPALQPI

Continued, sequence first:

Sequence	IC50 [µM]
DKDGCMVEQY	10
GLELSGCIVY	5.13
LVIDNGSGMCKG	26.6

Target: HLA-A*03:01
Assay: as above
Conditions: source organism: unidentified

IC50 [nM]	Sequence
4.8	ALSPVLIPR
12300	AVYEGHVSCVKG
13100	GATCELPLQK
8480	GFQNALLVR
14	IISIVTGLK
0.78	KISFPIIAK
960	LDAGLKKQFYK
18600	QFLEENTNILK
2720	QTALVEIIK
56	RAAPPPPPR
25700	RIKFSDDRVCKG
343	RLADKSVLVCKG
238	RSLTGILGK
2590	RTGVPPTIR
1830	RVFPSNVICKG
8740	SLFSTSSKL
119	SVRELNFTK

Second part, the sequence before the results:

Sequence	IC50 [nM]
GITCPQVLIQK	819
GSTCIYGGAPK	666
GVVCPVSDILYK	202
LNDRGGSVIK	10000
NTCQDAAIVGYK	1310
PSVGPVLGR	2180
QDKVKTLTGK	10000
RAAAPPLPR	175
RAVPGPPAR	372
STLTDSLVCGK	31

Target: HLA-B*07:02
Assay: as above
Conditions: source organism: unidentified

IC50 [nM]	Sequence
4.3	APRRPTQGTVTF
98	FPRVSTPLA
266	GVWEEVGCAKG
33	LGPRAAAAGAL
111	LPPPARPPI
554	LPRGGSVLVTCG
11500	PGREAVSKL
713	PGRGARRLLALV
4590	VPAQSRPCVG

Second part, the sequence before the results:

Sequence	IC50 [nM]
NPRGARVIAL	0.96
PKASSGSFSL	11300
PLRDARVSDL	8490
PSTLNVGTL	10000
PVEKNTVEL	9210
PVRPAAAAATAL	3230
RPRWGAAAS	3.6
SPLAASKECAV	367
WSVMDQDSL	10000

Target: HLA-B*27:05
Assay: as above
Conditions: source organism: unidentified

IC50 [nM]	Sequence
16	ERAGPLSGKKF
5760	GKLCQHIIKR
32	GRFEVGKKICLG
10000	GRNKLLQSW
657	GRVCSNRHGLIR
10000	LKRDKLFEK
833	RGLASPPPVR
108	RRNDKQLCIG
24	RRVYLEGRCVG
16	RRYNGGVGRCQ
241	TRLVLDPVR

More lines, now with the values behind:

Sequence	IC50 [nM]
AHKEIHQQL	83
ARCGGALLAL	5.3
ARVKEVEEMCKG	3170
PKLLGPLSL	27600
PRGSGGIGL	336
PRPRGGSDL	466
RRVSQGLLGK	1.6
TRSTGLLGVK	1520
VRSPGATASSL	986
